Measurements as given in patent US20220135687A1 (NANJING LEGEND BIOTECH, published 2022).
Where two headings read alike, the source gives them in different places.

What was measured:
[1] = target: T1, human PD-L1 expressed on CHO-K1 cells (Genscript, Cat #M00543) (human, UniProt Q9NZQ7 19-290); assay: FACS, CHO-K1/human PD-L1 cells
T1 construct: also called PD-L1 cell line
Experimental: PD-L1 stable cell line binding activity assessment of 12 mouse mAbs was carried out using FACS. CHO-K1 cells expressing human PD-L1 (Genscript, Cat #M00543) were dissociated from adherent culture flasks and mixed with varying concentrations of antibodies. The antibody and cells were incubated for 30 minutes at room temperature, washed three times with FACS buffer (PBS containing 1% BSA). PE-labeled goat anti-mouse IgG (minimal x-reactivity) secondary antibody (BioLegend, Cat #405307) was added and incubated at room temperature for 15 minutes. Cells were washed again with FACS buffer and analyzed by FACSCalibur (BD Bioscience, San Jose, Calif.) and Flowjo software. Data were analyzed with Prism 6 (GraphPad Software, San Diego, Calif.) using non-linear regression, and EC₅₀ values were calculated (FIGS. 2A-2L and Table 3).

[2] = target: T1, human PD-L1 expressed on CHO-K1 cells …; assay: FACS competition vs biotin-PD-1-Fc on CHO-K1/human PD-L1 cells
Experimental: A series of diluted mouse mAbs (concentration starting from 900 nM, 3 fold dilution, 50 μl per well) were added afterwards. The mixture was incubated at 4° C. for 30 minutes, washed twice with wash buffer, followed by the addition of PEcy5/streptavidin (1 μg/ml, 150 μl/well). The plates were again incubated at 4° C. for 30 minutes before the cells in each well were analyzed by FACSCalibur (BD Bioscience, San Jose, Calif.) and Flowjo software.

[3] = target: T2, His-tagged PD-L1 ECD protein (ACROBiosystems) (human, UniProt Q9NZQ7 19-238); assay: SPR, supernatant IgG captured, PD-L1-His analyte
T2 construct: Bought protein; also called PD-L1-His; PD-L1/His; not shown: His tag

[4] = target: T2, His-tagged PD-L1 ECD protein …; assay: SPR, supernatant IgG captured, PD-L1-His analyte; remark: listed apart in the source

T1 sequence (Q9NZQ7 19-290, one chain of several): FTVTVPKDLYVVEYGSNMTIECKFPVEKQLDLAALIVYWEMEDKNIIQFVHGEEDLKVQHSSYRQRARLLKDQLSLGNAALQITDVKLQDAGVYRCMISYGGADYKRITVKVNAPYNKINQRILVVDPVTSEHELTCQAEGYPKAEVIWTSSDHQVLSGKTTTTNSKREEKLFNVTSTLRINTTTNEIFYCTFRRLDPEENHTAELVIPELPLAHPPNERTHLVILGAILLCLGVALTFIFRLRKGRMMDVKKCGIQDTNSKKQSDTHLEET
T2 sequence (Q9NZQ7 19-238): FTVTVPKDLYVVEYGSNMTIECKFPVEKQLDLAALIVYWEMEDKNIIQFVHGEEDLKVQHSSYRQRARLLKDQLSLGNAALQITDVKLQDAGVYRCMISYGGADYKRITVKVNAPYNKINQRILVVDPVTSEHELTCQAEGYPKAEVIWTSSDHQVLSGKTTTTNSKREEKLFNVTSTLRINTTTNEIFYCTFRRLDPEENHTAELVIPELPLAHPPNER

B1: 1H1G4D9 (antibody, V domains shown)
VH: EGQLQQSGAELVKPGASVILSCTASGFNIKDTYIHWLNQRPEQGLEWIGRIEPANGNTKYDPTFQGKATITADTSSNTAYLQLTSLTSEDTAVYYCSRGGIYYYGSHWYFDVWGAGTLVTVSS
VL: DVLMTQTPLSLPVSLGDQASISCRSSQNIVYSDGDTYLEWYLQKPGQSPKLLIFKVSNRFSGVPDRFSGSGSGTDFTLKISRVEAEDLGVYYCFQGSHVPFTFGSGTKLEIK
notes: Mouse mAb from hybridoma culture
[1]
  EC50: 12.3 nM
  Top (best-fit value): 1760
[2]
  IC50: 11.8 nM

B2: 25G1F9F8 (antibody, V domains shown)
VH: EGQLQQSGAELVKPGASVNLSCTASGFNIKDTYIHWVKQRPDQGLEWIGRIAPTNGNAKFHPTFQGKATITADTSSNTAYLQLSSLTSEDTAVYYCTRGGIYYYGTHWYFDVWGAGTTVTVSS
VL: DVLMNQTPLSLPVSLGDQASISCRSSQNIVYSDGNTYLEWYLQKPGQSPKLLIFQVSNRFSGVPDRFSGSGSGTDFTLKISRVEAEDLGFYYCFQGSHVPFTFGSGTKLEIK
notes: as for B1
[1]
  EC50: 18.1 nM
  Top (best-fit value): 1750
[2]
  IC50: 13.8 nM

B3: 30A6B2D9 (antibody, V domains shown)
VH: EGQLQQSGAGLVKPGASVNLSCTASGFNIKDTYIHWMKQRPEQGLEWIGRIAPTNGNTKYDPTFQGKATITADSSSNTAYLQVSSLTSEDTAVYYCSRGGIYYYGSHWYFDVWGAGTTVTVSS
VL: SVLMTQTPLSLPVSLGDQASISCRSSQNIVYSDGDTYLEWYLQKPGQSPKLLIFKVSNRFFGVPDRFSGSGSGTDFTLKINRVEAEDLGVYYCFQGSHVPFTFGSGTKLEIK
notes: as for B1
[1]
  EC50: 11.1 nM
  Top (best-fit value): 1640
[2]
  IC50: 8.35 nM

B4: 30A7B5D9 (antibody, V domains shown)
VH: KVQLQQSGAELVKPGTSVKLSCKASGYTFTEYIIYWIKQRSGQGLEWIGWFYPGTGSIKYNEKFKDKATLTADKSSSTVFMELSRLTSEDSAVYFCARHEEGNLWFAYWGQGTLVTVSA
VL: QIVLTQSPALMSASPGERVTMTCSASSDVSYMYWYQQKPRSSPKPWIYLTSNLASGVPARFSGSGSGTSYSLTISSMEAEDAATYYCQQWTGNPLTFGAGTKLELK
notes: as for B1
[1]
  EC50: 6.12 nM
  Top (best-fit value): 1720
[2]
  IC50: 4.43 nM

B5: 29A8_VH2-VL1.M1 (antibody, human IgG1, kappa, N297A, V domains shown)
VH: EVQLQESGPGLVKPSETLSLTCTVSGYSITSDFAWDWIRQFPGKGLEWMGHIRFSGTTSYNPSLKSRITISVDTSKNQFSLKLSSVTAADTAVYYCARSTLITKGFFDYWGQGTLVTVSS
VL: DIQMTQSPSSLSASVGDRVTITCRASQDVSPAVAWYQQKPGKAPKLLIYWASTRHTGVPSRFSGSGSGTDFTLTISSLQPEDFATYYCQQHYSTPWTFGQGTKVEIKR
notes: Humanized, hIgG1 effector-less Fc, kappa; see recheck on K24R in the .M1 light chain
[3]
  Kd: 1.3 nM
  koff: 0.00061 s⁻¹
  kon: 470000 M⁻¹ s⁻¹

B6: 29A8_VH3-VL1.M1 (antibody, human IgG1, kappa, N297A, V domains shown)
VH: EVQLQESGPGLVKPSETLSLTCTVSGYSITSDFAWDWIRQFPGKGLEWMGHIRFSGTTSYNPSLKSRITISVDTSKNQFFLKLSSVTAADTATYYCARSTLITKGFFDYWGQGTLLTVSS
VL: DIQMTQSPSSLSASVGDRVTITCRASQDVSPAVAWYQQKPGKAPKLLIYWASTRHTGVPSRFSGSGSGTDFTLTISSLQPEDFATYYCQQHYSTPWTFGQGTKVEIKR
notes: as for B5
[3]
  Kd: 1.1 nM
  koff: 0.00051 s⁻¹
  kon: 480000 M⁻¹ s⁻¹

B7: 53C1_VH-VL.M1 (antibody, human IgG1, kappa, N297A, V domains shown)
VH: QVQLQQSGNELARPGASVRLSCKASGYIFTGYGITWVRQRPGQGLEWIGEIFPRRVNTYYSEKFKGRATLTADISSSTAYMELRSLTSEDSAVYFCARDYDPYFALDYWGQGTSVTVSS
VL: DIVMTQSHKFMSTSVGDRVSITCRASQDVSTAVDWYQQKPGQSPKLLIYSASYRYTGVPDRFTGSGSGTAFTFTISGEQAEDLAVYYCQQHYSIPFTFGGGTKLEIKR
notes: Chimeric mutant, VL K24R in the entry; human IgG1 effector-less Fc, kappa
[4]
  Kd: 0.76 nM
  koff: 0.0002 s⁻¹
  kon: 260000 M⁻¹ s⁻¹

B8: 53C1_VH.M2-VL (antibody, human IgG1, kappa, N297A, V domains shown)
VH: QVQLQQSGNELARPGASVRLSCKASGYIFTGYGITWVRQRPGQGLEWIGEIFPRRVATYYSEKFKGRATLTADISSSTAYMELRSLTSEDSAVYFCARDYDPYFALDYWGQGTSVTVSS
VL: DIVMTQSHKFMSTSVGDRVSITCKASQDVSTAVDWYQQKPGQSPKLLIYSASYRYTGVPDRFTGSGSGTAFTFTISGEQAEDLAVYYCQQHYSIPFTFGGGTKLEIKR
notes: Chimeric mutant, VH N57A in the entry; human IgG1 effector-less Fc, kappa
[4]
  Kd: 0.81 nM
  koff: 0.00016 s⁻¹
  kon: 200000 M⁻¹ s⁻¹

B9: 53C1_VH.M3-VL (antibody, human IgG1, kappa, N297A, V domains shown)
VH: QVQLQQSGNELARPGASVRLSCKASGYIFTGYGITWVRQRPGQGLEWIGEIFPRRVQTYYSEKFKGRATLTADISSSTAYMELRSLTSEDSAVYFCARDYDPYFALDYWGQGTSVTVSS
VL: DIVMTQSHKFMSTSVGDRVSITCKASQDVSTAVDWYQQKPGQSPKLLIYSASYRYTGVPDRFTGSGSGTAFTFTISGEQAEDLAVYYCQQHYSIPFTFGGGTKLEIKR
notes: Chimeric mutant, VH N57Q in the entry; human IgG1 effector-less Fc, kappa
[4]
  Kd: 0.53 nM
  koff: 0.00014 s⁻¹
  kon: 260000 M⁻¹ s⁻¹

B10: 53C1_VH.M3-VL.M1 (antibody, human IgG1, kappa, N297A, V domains shown)
VH: QVQLQQSGNELARPGASVRLSCKASGYIFTGYGITWVRQRPGQGLEWIGEIFPRRVQTYYSEKFKGRATLTADISSSTAYMELRSLTSEDSAVYFCARDYDPYFALDYWGQGTSVTVSS
VL: DIVMTQSHKFMSTSVGDRVSITCRASQDVSTAVDWYQQKPGQSPKLLIYSASYRYTGVPDRFTGSGSGTAFTFTISGEQAEDLAVYYCQQHYSIPFTFGGGTKLEIKR
notes: Chimeric mutant (VH N57Q, VL K24R in the entries); human IgG1 effector-less Fc, kappa
[4]
  Kd: 0.56 nM
  koff: 0.00014 s⁻¹
  kon: 260000 M⁻¹ s⁻¹

B11: 53C1_VH.M2-VL.M1 (antibody, human IgG1, kappa, N297A, V domains shown)
VH: QVQLQQSGNELARPGASVRLSCKASGYIFTGYGITWVRQRPGQGLEWIGEIFPRRVATYYSEKFKGRATLTADISSSTAYMELRSLTSEDSAVYFCARDYDPYFALDYWGQGTSVTVSS
VL: DIVMTQSHKFMSTSVGDRVSITCRASQDVSTAVDWYQQKPGQSPKLLIYSASYRYTGVPDRFTGSGSGTAFTFTISGEQAEDLAVYYCQQHYSIPFTFGGGTKLEIKR
notes: Chimeric mutant (VH N57A, VL K24R in the entries); human IgG1 effector-less Fc, kappa
[4]
  Kd: 0.94 nM
  koff: 0.00018 s⁻¹
  kon: 200000 M⁻¹ s⁻¹

B12: 53C1_VH.M1-VL.M1 (antibody, human IgG1, kappa, N297A, V domains shown)
VH: QVQLQQSGNELARPGASVRLSCKASGYIFTGYGITWVRQRPGQGLEWIGEIFPRRVSTYYSEKFKGRATLTADISSSTAYMELRSLTSEDSAVYFCARDYDPYFALDYWGQGTSVTVSS
VL: DIVMTQSHKFMSTSVGDRVSITCRASQDVSTAVDWYQQKPGQSPKLLIYSASYRYTGVPDRFTGSGSGTAFTFTISGEQAEDLAVYYCQQHYSIPFTFGGGTKLEIKR
notes: Chimeric mutant (VH N57S, VL K24R in the entries); human IgG1 effector-less Fc, kappa
[4]
  Kd: 0.86 nM
  koff: 0.0002 s⁻¹
  kon: 240000 M⁻¹ s⁻¹

B13: 53C1_VH.M1-VL (antibody, human IgG1, kappa, N297A, V domains shown)
VH: QVQLQQSGNELARPGASVRLSCKASGYIFTGYGITWVRQRPGQGLEWIGEIFPRRVSTYYSEKFKGRATLTADISSSTAYMELRSLTSEDSAVYFCARDYDPYFALDYWGQGTSVTVSS
VL: DIVMTQSHKFMSTSVGDRVSITCKASQDVSTAVDWYQQKPGQSPKLLIYSASYRYTGVPDRFTGSGSGTAFTFTISGEQAEDLAVYYCQQHYSIPFTFGGGTKLEIKR
notes: Chimeric mutant, VH N57S in the entry; human IgG1 effector-less Fc, kappa
[4]
  Kd: 0.87 nM
  koff: 0.00021 s⁻¹
  kon: 240000 M⁻¹ s⁻¹

B14: 29A8_VH-VL.M1 (antibody, human IgG1, kappa, N297A, V domains shown)
VH: DVQLQGSGPGLVKPSQSLSLTCTVTGYSITSDFAWDWIRQFPGNKLEWMGHIRFSGTTSYNPSLKSRISITRDTSKNQFFLQLNSVTSEDTATYYCARSTLITKGFFDYWGQGTTLTVSS
VL: DIVMTQSHKFMSTSVGGRVSITCRASQDVSPAVAWYQQKPGQSPKLLIYWASTRHTGVPDRFTGSGSGTDFTLTISSVQTEDLALYYCQQHYSTPWTFGGGTKLEIKR
notes: human IgG1 effector-less Fc, kappa
[4]
  Kd: 0.29 nM
  koff: 0.00015 s⁻¹
  kon: 530000 M⁻¹ s⁻¹

B15: 42G2D7C3 (antibody, V domains shown)
VH: DVQLLESGPGLVKPSQSLSLTCSVTGYSITSGYYWNWIRQFPGNNLEWMGSINYDGSNDYNPSLQDRISITRDTSKNQFFLKLNSVTTEDTATYYCARRLDYWGQGTTLIVSS
VL: QIVLTQSPAIMSASPGEKVTISCSASSFINYMYWYQQKPGSSPKPWILRTSTLASGVPARFSGSGSGTSYSLTISSMEAEDAATYYCQQYHSYPLTFGAGTKLELK
notes: as for B1
[1]
  EC50: 3.29 nM
  Top (best-fit value): 1780
[2]
  IC50: 2.89 nM

B16: 25B6E5D8 (antibody, V domains shown)
VH: QFQLQQSGAELVRPGSSVKISCKASGYEFSSNWMNWVKQRPGQSLEWIGQIWPGDGDTNYNGKFRGKATLTSDKSSSTAYMQLNSLTSEDSAVYFCARGRASFYFDYWGQGTALTVSS
VL: DIVLTQSPASLAVSLGQRATISCRASESVDDYGNSFMHWYQQKPGQPPKLLIYRASNLESGIPVRFSGSGSRTDFTLTINPVEADDVATYYCQQSNEDPHTFGGGTKLEIK
notes: as for B1
[1]
  EC50: 4.5 nM
  Top (best-fit value): 1410

B17: 21D1F4D4 (antibody, V domains shown)
VH: QVQLQQPGAEVVRPGASVKLSCKASGYTFTNYWISWVKQRPGQGLEWIGNIYPSDSYTNYNQNFKDKATLTVDKSSSTAYMQLSSPTSEDSAVYYCTTGIITVIATRDDYWGQGTTLTVSS
VL: QIVLTQSPAIMSASPGEKVTLTCSASSSVSSSYLYWYQQKPGSSPKLWIYSTSNLASGVPARFSGSGSGTSYSLTVSSMEAEDAASYFCHQWSSYPFTFGSGTKLEIK
notes: as for B1
[1]
  EC50: 9.37 nM
  Top (best-fit value): 1960
[2]
  IC50: 3.79 nM
